Experimental data as given in the supplement of paper PMC7877785.
± gives the uncertainty stated by the source.

Assay: self-splicing fitness, log relative to wild type (ln ratio); higher = more splicing; Tetrahymena group I intron in knt gene, E. coli kanamycin selection, DiMSum; sequences stand for … in CUCUCU…GGAGGGAAAAGUUAUCAGGCAUGCACCUGGUAGCUAGUCUUUAAACCAAUAGAUUGCAUCGGUUUAAAAGGCAAGACCGUCAAAUUGCGGGAAAGGGGUCAACAGCCGUUCAGUACCAAGUCUCAGGGGAAACUUUGAGAUGGCCUUGCAAAGGGUAUGGUAAUAAGCUGACGGACAUGGUCCUAACCACGCAGCCAAGUCCUAAGUCAACAGAUCUUCUGUUGAUAUGGAUGCAGUUCACAGACUAAAUGUCGGUCGGGGAAGAUGUAUUCUUCUCAUAAGAUAUAGUCGGACCUCUCCUUAAUGGGAGCUAGCGGAUGAAGUGAUGCAACACUGGAGCCGCUGGGAACUAAUUUGUAUGCGAAAGUAUAUUGAUUAGUUUUGGAGUACUCGUGGUCG
Procedure, shortened: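 A randomised library covering all eight P1ex-region intron nucleotides was built with the intron in the knt kanamycin-resistance gene on pET-22b(+) and held in E. coli BL21(DE3). Cells were grown overnight at 37°C or 30°C on LB agar, with or without 25 μg/mL kanamycin, plus 100 μg/mL carbenicillin, 50 μM IPTG and 0.2% rhamnose, and pooled colonies were amplicon-sequenced on an Illumina HiSeq 2500. DiMSum fitness is the error-weighted combination of wild-type-normalised replicate fold changes, kanamycin versus none.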

Sequence | self-splicing fitness (ln) (30 °C) | self-splicing fitness (ln) (37 °C)
AAGUAGCAAUAUUACGUGAU | -2.24 ± 0.098 | -1.77 ± 0.12
CGAUAGCAAUAUUACGGGAC | -4.19 ± 0.36 | -2.42 ± 0.27
AUGCAGCAAUAUUACGCGCU | -1.37 ± 0.097 | -1.22 ± 0.12
UUACAGCAAUAUUACGAGUG | -1.16 ± 0.069 | -0.895 ± 0.079
GAGUAGCAAUAUUACGUCCA | -1.32 ± 0.14 | -0.346 ± 0.16
GACCAGCAAUAUUACGCUAG | -1.29 ± 0.087 | -0.88 ± 0.1
ACUCAGCAAUAUUACGUGCG | -0.485 ± 0.063 | -0.526 ± 0.078
AGGUAGCAAUAUUACGUGGC | -3.619 ± 0.028 | -2.74 ± 0.042
UUUAAGCAAUAUUACGGCAC | -2 ± 0.27 | -1.87 ± 0.23
UAGAAGCAAUAUUACGUGUG | -0.994 ± 0.069 | -0.74 ± 0.084
GCAUAGCAAUAUUACGUGGA | -3.06 ± 0.25 | -1.75 ± 0.17
AACAAGCAAUAUUACGCCAC | -3.71 ± 0.4 | -2.83 ± 0.47
AGGCAGCAAUAUUACGAGGG | -2.52 ± 0.11 | -2.83 ± 0.23
ACGGAGCAAUAUUACGUGUC | -4.54 ± 0.46 | -1.8 ± 0.18
GGCUAGCAAUAUUACGGGGA | -2.17 ± 0.17 | -1.25 ± 0.17
GCAAAGCAAUAUUACGAAAU | -2.4 ± 0.12 | -1.36 ± 0.11
UCUUAGCAAUAUUACGCGUU | -3.83 ± 0.34 | -1.75 ± 0.2
AUGCAGCAAUAUUACGGAAG | -3.07 ± 0.16 | -2.01 ± 0.2
GAGCAGCAAUAUUACGUCGA | -1.51 ± 0.12 | -0.741 ± 0.12
UCCAAGCAAUAUUACGCUGC | -2.94 ± 0.21 | -2.61 ± 0.27
CAGUAGCAAUAUUACGAUAG | 0.00229 ± 0.079 | 0.167 ± 0.097
AGGUAGCAAUAUUACGUCAU | -2.147 ± 0.016 | -1.03 ± 0.034
UGGCAGCAAUAUUACGCAAA | -1.87 ± 0.23 | -0.513 ± 0.26
ACGUAGCAAUAUUACGGUAU | -2.02 ± 0.11 | -1.56 ± 0.12
CUAGAGCAAUAUUACGCGCU | -3.47 ± 0.23 | -2.19 ± 0.27

Sequence | self-splicing fitness (ln) (30 °C) | self-splicing fitness (ln) (37 °C)
UUAAAGCAAUAUUACGACGA | 0.0585 ± 0.12 | 0.0349 ± 0.12
UCUAAGCAAUAUUACGUUAA | -3.72 ± 0.32 | -1.67 ± 0.2
GACCAGCAAUAUUACGUUGC | -1.78 ± 0.067 | -1.56 ± 0.1
UUCCAGCAAUAUUACGGCUG | -3.09 ± 0.2 | -2.68 ± 0.25
AGCAAGCAAUAUUACGUGCU | -2.38 ± 0.14 | -2.07 ± 0.16
AUAAAGCAAUAUUACGGACA | -0.148 ± 0.094 | 0.131 ± 0.13
AACAAGCAAUAUUACGUAGG | -2.76 ± 0.086 | -1.57 ± 0.1
UUCGAGCAAUAUUACGCAGU | -2.87 ± 0.36 | -1.61 ± 0.33
UAUUAGCAAUAUUACGGAUU | -1.74 ± 0.12 | -0.699 ± 0.11
AAUCAGCAAUAUUACGGCAG | -1 ± 0.095 | -1.32 ± 0.11
AUACAGCAAUAUUACGGCUG | -1.95 ± 0.13 | -2.6 ± 0.23
CGCCAGCAAUAUUACGAAAU | -4.66 ± 0.37 | -2.69 ± 0.24
GUUAAGCAAUAUUACGGCGG | -2.8 ± 0.21 | -2.29 ± 0.33
GCGCAGCAAUAUUACGGAUC | -0.0635 ± 0.068 | 0.419 ± 0.083
CGAUAGCAAUAUUACGCCCA | -1.46 ± 0.28 | 0.585 ± 0.16
GGACAGCAAUAUUACGCUAG | -1.85 ± 0.13 | -0.798 ± 0.17
CAGAAGCAAUAUUACGAUAA | -2.32 ± 0.17 | -2.02 ± 0.26
CCCCAGCAAUAUUACGCCCG | -1.79 ± 0.17 | -2.57 ± 0.28
AUUAAGCAAUAUUACGUCGU | -1.43 ± 0.094 | -0.383 ± 0.12
CAGUAGCAAUAUUACGUUAU | -2.82 ± 0.24 | -1.37 ± 0.2
CGUAAGCAAUAUUACGCACU | -2.27 ± 0.24 | -1.6 ± 0.18
GGGAAGCAAUAUUACGAUAA | -1.61 ± 0.11 | -0.785 ± 0.15
CUAUAGCAAUAUUACGUCCU | -3.39 ± 0.22 | -2.7 ± 0.29
CCUAAGCAAUAUUACGGUUG | -3.92 ± 0.19 | -2.07 ± 0.15
GGCUAGCAAUAUUACGCUUU | -0.428 ± 0.083 | 0.202 ± 0.099

Sequence | self-splicing fitness (ln) (30 °C) | self-splicing fitness (ln) (37 °C)
CUGCAGCAAUAUUACGGGUG | -0.771 ± 0.049 | -0.0809 ± 0.058
GUAGAGCAAUAUUACGUGAG | -2.33 ± 0.15 | -0.687 ± 0.16
AGCAAGCAAUAUUACGACCG | -0.988 ± 0.069 | -0.512 ± 0.097
CACUAGCAAUAUUACGUGAG | -3.33 ± 0.14 | -2.91 ± 0.23
UGCUAGCAAUAUUACGCAUU | -3.79 ± 0.39 | -1.85 ± 0.34
ACUCAGCAAUAUUACGCGUA | -0.747 ± 0.11 | -0.395 ± 0.11
AGAAAGCAAUAUUACGGUAG | -3.84 ± 0.22 | -2.37 ± 0.21
AACCAGCAAUAUUACGUUCG | -2.59 ± 0.15 | -1.63 ± 0.13
CUUAAGCAAUAUUACGCGUA | -2.75 ± 0.34 | -3.23 ± 0.29
UCGAAGCAAUAUUACGCCCA | -1.84 ± 0.32 | -0.793 ± 0.25
CCCGAGCAAUAUUACGCCAC | -3.54 ± 0.26 | -2.84 ± 0.31
ACGCAGCAAUAUUACGGUUC | -3.63 ± 0.22 | -1.89 ± 0.15
GCACAGCAAUAUUACGUUAC | -1.14 ± 0.074 | -0.837 ± 0.087
UUUCAGCAAUAUUACGCCGU | -3.39 ± 0.36 | -1.45 ± 0.26
CAUCAGCAAUAUUACGACUA | -1.26 ± 0.13 | -0.0399 ± 0.13
CGGCAGCAAUAUUACGUACG | -3.05 ± 0.17 | -1.31 ± 0.16
AUGUAGCAAUAUUACGCCAC | -3.49 ± 0.36 | 
CGACAGCAAUAUUACGCACA | -0.429 ± 0.17 | 0.097 ± 0.17
CAGCAGCAAUAUUACGCAAA | -3.14 ± 0.34 | -1.77 ± 0.23
ACUCAGCAAUAUUACGCGUC | -3.42 ± 0.19 | -2.06 ± 0.25
CUGUAGCAAUAUUACGUGGA | -3.85 ± 0.28 | -4.32 ± 0.42
GGCGAGCAAUAUUACGUAUU | -2.29 ± 0.14 | -0.757 ± 0.12
UGAUAGCAAUAUUACGCACG | -1.41 ± 0.3 | -0.216 ± 0.19
CGGAAGCAAUAUUACGAGGU | -4.22 ± 0.39 | -2.42 ± 0.35
UCACAGCAAUAUUACGAUUC | -3.61 ± 0.16 | -3.05 ± 0.18
